Data from publication PMC6145873.

Legend:
[1] = biological target: Thermus thermophilus PilF type IVa pilus assembly ATPase, full length (Thermus thermophilus HB8); experiment: cryo-EM structure; single particle reconstructions of full length TtPilF as apoprotein and with 1 mM AMPPNP; ~200 μg/ml; 25 mM HEPES pH 7.5, 150 mM NaCl, 5 mM MgCl2, 5% glycerol; C2 symmetry applied
[2] = biological target: TtPilFc, C-terminal tryptic fragment of Thermus thermophilus PilF (N2, CTD and Zn-binding domains) (Thermus thermophilus HB8); experiment: crystal structure; TtPilFc with bound ATP/Mg2+, space group C2, 2.44 Å; crystals at 20 °C in 0.2 M sodium bromide, 0.1 M Bis-Tris propane pH 6.5, 20% PEG 3350

Row | stoichiometry N [1] | stoichiometry N [2] | Substance
1 | 6 |  | Thermus thermophilus PilF type IVa pilus assembly ATPase, full length (enzyme)
2 |  | 6 | TtPilFc, C-terminal tryptic fragment of Thermus thermophilus PilF (N2, CTD and Zn-binding domains) (domain or fragment)
